Data from patent publication EP4596580A1 (Staidson (Beijing) Biopharmaceuticals Co., Ltd., dated 2025).
Changes are numbered by the printed parent chain. Read-outs that look alike come from different tables or passages of the source.

Legend:
His-human LIGHT [1] = molecular target: T1, His-human LIGHT (human); assay: cell-based or functional assay
T1 chain: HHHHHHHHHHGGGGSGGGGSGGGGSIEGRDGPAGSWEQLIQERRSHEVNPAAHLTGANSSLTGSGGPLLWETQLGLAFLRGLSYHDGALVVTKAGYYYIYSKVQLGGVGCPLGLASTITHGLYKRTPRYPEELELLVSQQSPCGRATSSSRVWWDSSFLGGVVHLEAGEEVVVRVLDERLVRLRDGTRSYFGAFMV

His-human LIGHT [2] = molecular target: T1, His-human LIGHT; assay: cell-based or functional assay
His-human LIGHT [3] = molecular target: T1, His-human LIGHT; assay: ELISA, His-huLIGHT coated
His-human LIGHT [4] = molecular target: T1, His-human LIGHT; assay: cell-based or functional assay
His-human LIGHT [5] = molecular target: T1, His-human LIGHT; assay: cell-based or functional assay
hFc-human LIGHT [6] = molecular target: T2, hFc-human LIGHT (human); assay: competition ELISA, LTβR-His coated, hFc-huLIGHT added
T2 construct: also called hFc-huLIGHT

[7] = molecular target: T3, LIGHT on the surface of HEK293-LIGHT stable cells (human, UniProt O43557 1-240); assay: cell-based or functional assay
[8] = molecular target: T4, His-cynomolgus monkey LIGHT (cynomolgus monkey); assay: ELISA, His-cynoLIGHT coated
T4 construct: also called His-cynoLIGHT
T4 chain: T1 chain with P32H, A33G, E47Q, V48N, S83D, V91A, T92N, S149N, A167V

His-human LIGHT [9] = molecular target: T1, His-human LIGHT; assay: ELISA, His-huLIGHT coated
[10] = molecular target: T3, LIGHT on the surface of HEK293-LIGHT …; assay: cell-based or functional assay; remark: listed apart in the source
His-human LIGHT [11] = molecular target: T1, His-human LIGHT; assay: cell-based or functional assay
hFc-human LIGHT [12] = molecular target: T2, hFc-human LIGHT; assay: competition ELISA, LTβR-His coated, hFc-huLIGHT added; remark: listed apart in the source
His-human LIGHT [13] = molecular target: T1, His-human LIGHT; assay: cell-based or functional assay
His-human LIGHT [14] = molecular target: T1, His-human LIGHT; assay: SPR, Biacore 8K, antibody on CM5 chip, human LIGHT

B1: hum_LT-m37-14 (antibody, human IgG4, V domains shown)
VH: QVQLVQSGAEVKKPGASVKVSCKASGYSFTGYFINWVRQAPGQSLEWIGRIYPYNVDTFYNQNFKGRATLTADKSTSTAYMELSSLRSEDTAVYYCGRGTHYYGSSGAMDYWGQGTLVTVSS
VL: EIVLTQSPATLSVSPGERATLSCKASQNVGTAVAWYQQKPGQSPRLLIYSASNRYTGIPARFSGSGSGTEFTLTISSLQSEDFAVYYCQQYSSYPYTFGGGTKVEIK
notes: humanized from LT-m37
IC50, proliferation of CD3+ T cells stimulated by plate-bound anti-CD3 and His-huLIGHT (CellTiter Glo) (His-human LIGHT [1]): 0.332 µg/mL
IC50, LIGHT induced MMP-9 production in BEAS-2B bronchial epithelial cells (His-human LIGHT [2]): 0.352 µg/mL
EC50 (His-human LIGHT [3]): 0.0464 nM
IC50, LTβR NF-κB luciferase reporter, free LIGHT (His-human LIGHT [4]): 0.182 nM
IC50, HVEM NF-κB luciferase reporter, free LIGHT (His-human LIGHT [5]): 0.161 nM
IC50 (hFc-human LIGHT [6]): 1.02 nM
IC50, LTβR NF-κB luciferase reporter, HEK293-LIGHT cells [7]: 1.86 nM
EC50 [8]: 0.104 nM

B2: hum_LT-m37-15 (antibody, human IgG4, V domains shown)
VH: B1 VH with S44G, L70M
VL: B1 VL
notes: humanized from LT-m37
IC50, proliferation of CD3+ T cells stimulated by plate-bound anti-CD3 and His-huLIGHT (CellTiter Glo) (His-human LIGHT [1]): 0.195 µg/mL
IC50, LIGHT induced MMP-9 production in BEAS-2B bronchial epithelial cells (His-human LIGHT [2]): 0.197 µg/mL
EC50 (His-human LIGHT [3]): 0.0658 nM
IC50, LTβR NF-κB luciferase reporter, free LIGHT (His-human LIGHT [4]): 0.219 nM
IC50, HVEM NF-κB luciferase reporter, free LIGHT (His-human LIGHT [5]): 0.12 nM
IC50 (hFc-human LIGHT [6]): 0.844 nM
IC50, LTβR NF-κB luciferase reporter, HEK293-LIGHT cells [7]: 1.28 nM
EC50 [8]: 0.13 nM

B3: hum_LT-m37-4 (antibody, human IgG4, V domains shown)
VH: B1 VH with S44G, D57N, A68V, L70M
VL: B1 VL with Y87F
notes: humanized from LT-m37
EC50 (His-human LIGHT [9]): 0.0859 µg/mL
IC50, LTβR NF-κB luciferase reporter, HEK293-LIGHT cells [10]: 2.56 µg/mL
IC50, LTβR NF-κB luciferase reporter, free LIGHT (His-human LIGHT [11]): 0.129 µg/mL
IC50 (hFc-human LIGHT [12]): 0.0748 nM
EC50 [8]: 0.0527 nM
IC50, HVEM NF-κB luciferase reporter, free LIGHT (His-human LIGHT [13]): 0.0677 µg/mL
Kd (His-human LIGHT [14]): 0.241 nM
koff (His-human LIGHT [14]): 7.1e-05 s⁻¹
kon (His-human LIGHT [14]): 295000 M⁻¹ s⁻¹

B4: hum_LT-m37-13 (antibody, human IgG4, V domains shown)
VH: B1 VH with S44G, A68V, L70M
VL: B1 VL with Y87F
notes: humanized from LT-m37
IC50, proliferation of CD3+ T cells stimulated by plate-bound anti-CD3 and His-huLIGHT (CellTiter Glo) (His-human LIGHT [1]): 0.311 µg/mL
IC50, LIGHT induced MMP-9 production in BEAS-2B bronchial epithelial cells (His-human LIGHT [2]): 0.358 µg/mL
EC50 (His-human LIGHT [3]): 0.0422 nM
IC50, LTβR NF-κB luciferase reporter, free LIGHT (His-human LIGHT [4]): 0.227 nM
IC50 (hFc-human LIGHT [6]): 0.867 nM
IC50, LTβR NF-κB luciferase reporter, HEK293-LIGHT cells [7]: 0.867 nM
EC50 [8]: 0.104 nM

B5: hum_LT-m37-5 (antibody, human IgG4, V domains shown)
VH: B1 VH with D57N
VL: B1 VL with L4M, Y87F
notes: humanized from LT-m37
EC50 (His-human LIGHT [9]): 0.0837 µg/mL
IC50, LTβR NF-κB luciferase reporter, HEK293-LIGHT cells [10]: 2.22 µg/mL
IC50, LTβR NF-κB luciferase reporter, free LIGHT (His-human LIGHT [11]): 0.16 µg/mL
IC50 (hFc-human LIGHT [12]): 0.0771 nM
EC50 [8]: 0.0513 nM
IC50, HVEM NF-κB luciferase reporter, free LIGHT (His-human LIGHT [13]): 0.062 µg/mL
Kd (His-human LIGHT [14]): 0.0575 nM
koff (His-human LIGHT [14]): 6.34e-05 s⁻¹
kon (His-human LIGHT [14]): 1.1e+06 M⁻¹ s⁻¹

B6: hum_LT-m37-6 (antibody, human IgG4, V domains shown)
VH: B1 VH with S44G, D57N
VL: B1 VL with L4M, Y87F
notes: humanized from LT-m37
EC50 (His-human LIGHT [9]): 0.0939 µg/mL
IC50, LTβR NF-κB luciferase reporter, HEK293-LIGHT cells [10]: 1.86 µg/mL
IC50, LTβR NF-κB luciferase reporter, free LIGHT (His-human LIGHT [11]): 0.224 µg/mL
IC50 (hFc-human LIGHT [12]): 0.0753 nM
EC50 [8]: 0.0588 nM
IC50, HVEM NF-κB luciferase reporter, free LIGHT (His-human LIGHT [13]): 0.0518 µg/mL
Kd (His-human LIGHT [14]): 0.0408 nM
koff (His-human LIGHT [14]): 5.25e-05 s⁻¹
kon (His-human LIGHT [14]): 1.29e+06 M⁻¹ s⁻¹

B7: hum_LT-m37-1 (antibody, human IgG4, V domains shown)
VH: B1 VH with D57N
VL: B1 VL with Y87F
notes: humanized from LT-m37
EC50 (His-human LIGHT [9]): 0.0662 µg/mL
IC50, LTβR NF-κB luciferase reporter, HEK293-LIGHT cells [10]: 5.39 µg/mL
IC50, LTβR NF-κB luciferase reporter, free LIGHT (His-human LIGHT [11]): 0.269 µg/mL
IC50 (hFc-human LIGHT [12]): 0.0754 nM
EC50 [8]: 0.0468 nM
IC50, HVEM NF-κB luciferase reporter, free LIGHT (His-human LIGHT [13]): 0.118 µg/mL
